Test results as given in patent US20220229068A1, “DETECTION OF PROTEIN TO PROTEIN INTERACTIONS” (THE GOVERNING COUNCIL OF THE UNIVERSITY OF TORONTO, priority 2019, published 2022).

B1: WT form of GP41-1: natural GP41-1 split intein, split at C37 (SEQ ID NO: 1, 2) (protein)
chain 1: CLDLKTQVQTPQGMKEISNIQVGDLVLSNTGYNEVLNVFPKSKKKSYKITLEDGKEIICSEEHLFPTQTGEMNISGGLKEGMCLYVKE
chain 2: MMLKKILKIEELDERELIDIEVSGNHLFYANDILTHN
modifications: Synthetic GP41-1 IN (WT); Synthetic GP41-1 IC (WT)
B2: C25 split intein: IC aa13-aa37 of WT IC; IN aa1-aa88 of WT IN + aa1-aa12 of WT IC (SEQ ID NO: 3, 4) (protein)
chain 1: CLDLKTQVQTPQGMKEISNIQVGDLVLSNTGYNEVLNVFPKSKKKSYKITLEDGKEIICSEEHLFPTQTGEMNISGGLKEGMCLYVKEMMLKKILKIEEL
chain 2: DERELIDIEVSGNHLFYANDILTHN
modifications: Synthetic GP41-1 IN (C25); Synthetic GP41-1 IC (C25)

Target: T1, FRB/FKBP1A interaction (Homo sapiens, UniProt P42345+P62942)
T1 construct: expressed in transfected cells; host or cells: HEK 293 (also HeLa, PC9)
T1 sequence (P42345 with tags, fused parts or gaps): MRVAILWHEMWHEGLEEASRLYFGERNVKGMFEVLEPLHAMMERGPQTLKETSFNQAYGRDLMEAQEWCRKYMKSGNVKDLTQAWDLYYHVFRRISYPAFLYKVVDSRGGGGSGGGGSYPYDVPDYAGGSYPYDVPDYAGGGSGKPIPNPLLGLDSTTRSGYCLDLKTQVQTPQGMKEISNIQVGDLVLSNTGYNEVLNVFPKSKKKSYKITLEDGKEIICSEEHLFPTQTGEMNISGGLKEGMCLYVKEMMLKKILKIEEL
T1 sequence (P62942 with tags, fused parts or gaps): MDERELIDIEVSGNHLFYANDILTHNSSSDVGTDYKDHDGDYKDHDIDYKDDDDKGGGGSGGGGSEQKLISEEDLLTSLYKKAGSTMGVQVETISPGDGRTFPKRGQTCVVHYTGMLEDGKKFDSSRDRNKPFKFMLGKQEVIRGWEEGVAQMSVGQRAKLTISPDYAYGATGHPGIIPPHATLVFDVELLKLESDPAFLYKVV
Assay type: cell-based
Settings: FRB-IN/IC-FKBP1A in HEK 293, Western blot
Protocol: Cell culture and treatment. […] These cells were grown in DMEM supplemented with 10% fetal calf serum (Life Technologies). […] For ELISA assay, cells were seeded in 96 well (Sarstedt AG & Co) or 384 well plates (Greiner Bio-One) with 15,000 (96 well) or 5,000 (384 well) cells per well. Cells were transfected with various plasmids with polyethylenimine (PEI) Max (Polysciences) [40]. Expression in HEK 293 Flp-In T-Rex cells was induced by treating the cells with tetracycline (1 μg/ml) for 6-16 hrs. […] Stable cell lines were created according to the manual of Flp-In T-REx (Invitrogen). Briefly, plasmid containing both bait and prey DNA and pOG44 plasmid (1:10 ratio) were cotransfected into HEK 293 Flp-In T-Rex cells.
Western blot analysis and immunoprecipitation. Cells were lysed in buffer H (Triton X 100 1%, β-glycerophosphate pH7.3 50 mM, EGTA 1.5 mM, EDTA 1 mM, orthovanadate 0.1 mM, DTT 1 mM supplemented with protease inhibitors (Roche)). After centrifugation at 21,000×g for 10 min, the supernatants were mixed with Laemmli sample buffer, boiled at 95° C. for 3-5 min and subjected to Western blot analysis. For immunoprecipitations, supernatants (0.3 ml) were incubated with antibodies at 4° C. with rotation for one hour, followed by another hour of incubation with protein G sepharose beads (GE Healthcare). […]

Molecule | self-association / splicing in the absence of rapamycin
B1 | relatively high level of FRB/FKBP1A splicing even in the absence of rapamycin treatment
B2 | minimal self-association
